The values below come from US20140072613A1, “Compositions and Methods for Treating Cutaneous Scarring” (priority 2012, published 2014).

Common to all, as to assay: biochemical
Common to all, as to type: biochemical

The target of experiment [1] is 266 human kinases (Homo sapiens, UniProt Q9Y6M4). The following applies: CK1γ3(h); 100 μM. The procedure, abridged: (§1)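 Inhibition was judged from reduced transfer of labelled phosphate from ATP to a positively charged substrate, which was captured on a negatively charged membrane and quantified by scintillation counting against a 100% activity control.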
266 human kinases (Homo sapiens, UniProt Q9Y6M4), sequence (Q9Y6M4 whole entry): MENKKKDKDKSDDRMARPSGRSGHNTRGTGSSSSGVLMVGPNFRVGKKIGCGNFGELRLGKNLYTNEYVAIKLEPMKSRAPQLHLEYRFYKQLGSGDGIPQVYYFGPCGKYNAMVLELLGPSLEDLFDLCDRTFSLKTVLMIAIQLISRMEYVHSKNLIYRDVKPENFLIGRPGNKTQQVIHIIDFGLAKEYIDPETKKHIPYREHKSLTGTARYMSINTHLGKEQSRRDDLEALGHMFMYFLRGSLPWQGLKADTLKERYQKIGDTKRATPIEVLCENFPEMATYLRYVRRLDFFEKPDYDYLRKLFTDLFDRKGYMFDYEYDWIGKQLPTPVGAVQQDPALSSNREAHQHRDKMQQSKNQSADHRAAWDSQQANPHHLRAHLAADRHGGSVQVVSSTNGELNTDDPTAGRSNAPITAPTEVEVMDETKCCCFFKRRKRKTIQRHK
In experiment [2] the target is 266 human kinases (Homo sapiens, UniProt P07333, Y969C). The settings on record: Fms(Y969C)(h); 100 μM. The essentials: as §1
Experiment [3] deals with 266 human kinases (Homo sapiens, UniProt P49760). The settings on record: CLK2(h); 100 μM. The procedure, abridged: as §1
266 human kinases (Homo sapiens, UniProt P49760), sequence (P49760 whole entry): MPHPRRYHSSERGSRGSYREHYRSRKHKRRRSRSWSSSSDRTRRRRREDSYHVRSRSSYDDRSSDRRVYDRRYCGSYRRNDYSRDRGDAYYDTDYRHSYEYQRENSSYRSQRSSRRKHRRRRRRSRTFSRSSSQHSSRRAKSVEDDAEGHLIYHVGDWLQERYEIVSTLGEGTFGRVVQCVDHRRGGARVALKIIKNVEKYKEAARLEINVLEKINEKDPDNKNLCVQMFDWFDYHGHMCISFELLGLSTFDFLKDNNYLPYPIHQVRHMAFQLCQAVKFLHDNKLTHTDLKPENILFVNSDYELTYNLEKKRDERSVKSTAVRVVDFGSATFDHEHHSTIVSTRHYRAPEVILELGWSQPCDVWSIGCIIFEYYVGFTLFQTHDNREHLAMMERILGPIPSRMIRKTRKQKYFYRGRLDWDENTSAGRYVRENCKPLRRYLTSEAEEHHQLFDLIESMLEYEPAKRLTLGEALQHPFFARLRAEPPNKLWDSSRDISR
Experiment [4] deals with 266 human kinases (Homo sapiens, UniProt P53667). The settings on record: LIMK1(h); 100 μM. The procedure, abridged: as §1
266 human kinases (Homo sapiens, UniProt P53667), sequence (P53667 whole entry): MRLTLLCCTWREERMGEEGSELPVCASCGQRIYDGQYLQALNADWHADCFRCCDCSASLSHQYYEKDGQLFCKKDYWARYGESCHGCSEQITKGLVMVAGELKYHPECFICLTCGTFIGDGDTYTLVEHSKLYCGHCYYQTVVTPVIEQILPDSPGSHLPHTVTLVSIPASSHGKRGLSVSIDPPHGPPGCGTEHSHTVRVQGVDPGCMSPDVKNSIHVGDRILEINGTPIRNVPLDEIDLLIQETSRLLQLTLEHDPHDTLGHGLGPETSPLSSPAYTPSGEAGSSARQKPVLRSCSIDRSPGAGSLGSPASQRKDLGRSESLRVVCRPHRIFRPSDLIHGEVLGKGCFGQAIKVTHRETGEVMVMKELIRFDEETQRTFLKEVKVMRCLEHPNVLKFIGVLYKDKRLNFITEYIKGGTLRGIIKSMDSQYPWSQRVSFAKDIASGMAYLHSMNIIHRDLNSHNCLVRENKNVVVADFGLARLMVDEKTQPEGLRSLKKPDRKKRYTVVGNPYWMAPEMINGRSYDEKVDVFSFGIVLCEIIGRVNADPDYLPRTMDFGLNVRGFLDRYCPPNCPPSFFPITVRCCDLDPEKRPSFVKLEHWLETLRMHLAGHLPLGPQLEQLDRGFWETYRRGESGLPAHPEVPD
Experiment [5] deals with 266 human kinases (Homo sapiens, UniProt P16234, V561D). The following applies: PDGFRα(V561D)(h); 100 μM. The procedure, abridged:
as §1

The target of experiment [6] is 266 human kinases (Homo sapiens, UniProt Q9H1R3). The following applies: MLCK(h); 100 μM. The procedure, abridged: as §1
266 human kinases (Homo sapiens, UniProt Q9H1R3), sequence (Q9H1R3 whole entry): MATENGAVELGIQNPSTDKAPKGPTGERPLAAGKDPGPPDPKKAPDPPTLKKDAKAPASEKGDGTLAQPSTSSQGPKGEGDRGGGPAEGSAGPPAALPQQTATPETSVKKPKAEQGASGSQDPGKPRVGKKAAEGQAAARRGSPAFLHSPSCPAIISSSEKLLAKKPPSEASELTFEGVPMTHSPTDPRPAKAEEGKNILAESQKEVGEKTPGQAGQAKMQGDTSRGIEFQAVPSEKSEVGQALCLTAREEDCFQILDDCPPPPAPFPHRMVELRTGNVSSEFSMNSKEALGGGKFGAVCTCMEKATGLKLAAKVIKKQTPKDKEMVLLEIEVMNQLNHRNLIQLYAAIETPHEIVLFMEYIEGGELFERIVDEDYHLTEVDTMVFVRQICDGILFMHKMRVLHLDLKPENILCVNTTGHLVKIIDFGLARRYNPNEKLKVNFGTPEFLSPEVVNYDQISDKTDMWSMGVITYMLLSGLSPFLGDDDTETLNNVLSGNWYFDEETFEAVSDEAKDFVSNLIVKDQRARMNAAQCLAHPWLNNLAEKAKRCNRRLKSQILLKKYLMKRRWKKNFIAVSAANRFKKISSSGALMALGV
Experiment [7] addresses 266 human kinases (Homo sapiens, UniProt Q9H2X6). The following applies: HIPK2(h); 100 μM. The procedure, abridged: as §1
For experiment [8], the target named is T1, 266 human kinases (Homo sapiens, UniProt Q13188).
T1 sequence (Q13188 1-491): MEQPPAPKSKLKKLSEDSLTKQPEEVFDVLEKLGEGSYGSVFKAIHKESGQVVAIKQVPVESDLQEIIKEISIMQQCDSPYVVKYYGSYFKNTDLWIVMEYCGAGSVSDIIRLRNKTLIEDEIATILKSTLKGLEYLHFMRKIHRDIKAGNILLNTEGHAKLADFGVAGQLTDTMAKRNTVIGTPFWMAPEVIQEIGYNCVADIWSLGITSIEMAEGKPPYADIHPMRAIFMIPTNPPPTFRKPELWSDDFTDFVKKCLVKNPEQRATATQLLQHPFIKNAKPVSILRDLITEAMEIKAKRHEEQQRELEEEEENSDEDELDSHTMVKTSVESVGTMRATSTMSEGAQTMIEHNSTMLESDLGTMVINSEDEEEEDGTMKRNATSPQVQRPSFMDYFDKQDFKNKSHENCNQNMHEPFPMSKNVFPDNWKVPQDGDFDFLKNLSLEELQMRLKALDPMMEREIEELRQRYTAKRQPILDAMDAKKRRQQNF
The following applies: MST2(h); 100 μM. The essentials:
as §1

The target of experiment [9] is 266 human kinases (Homo sapiens, UniProt Q02750). The following applies: MEK1(h); 100 μM. The essentials:
as §1

The target in experiment [10] is 266 human kinases (Homo sapiens, UniProt P10721, V654A). The following applies: cKit(V654A)(h); 100 μM. The procedure, abridged: as §1
The target in experiment [11] is T2, 266 human kinases (Homo sapiens, UniProt O00418).
T2 sequence (O00418 whole entry, looked up): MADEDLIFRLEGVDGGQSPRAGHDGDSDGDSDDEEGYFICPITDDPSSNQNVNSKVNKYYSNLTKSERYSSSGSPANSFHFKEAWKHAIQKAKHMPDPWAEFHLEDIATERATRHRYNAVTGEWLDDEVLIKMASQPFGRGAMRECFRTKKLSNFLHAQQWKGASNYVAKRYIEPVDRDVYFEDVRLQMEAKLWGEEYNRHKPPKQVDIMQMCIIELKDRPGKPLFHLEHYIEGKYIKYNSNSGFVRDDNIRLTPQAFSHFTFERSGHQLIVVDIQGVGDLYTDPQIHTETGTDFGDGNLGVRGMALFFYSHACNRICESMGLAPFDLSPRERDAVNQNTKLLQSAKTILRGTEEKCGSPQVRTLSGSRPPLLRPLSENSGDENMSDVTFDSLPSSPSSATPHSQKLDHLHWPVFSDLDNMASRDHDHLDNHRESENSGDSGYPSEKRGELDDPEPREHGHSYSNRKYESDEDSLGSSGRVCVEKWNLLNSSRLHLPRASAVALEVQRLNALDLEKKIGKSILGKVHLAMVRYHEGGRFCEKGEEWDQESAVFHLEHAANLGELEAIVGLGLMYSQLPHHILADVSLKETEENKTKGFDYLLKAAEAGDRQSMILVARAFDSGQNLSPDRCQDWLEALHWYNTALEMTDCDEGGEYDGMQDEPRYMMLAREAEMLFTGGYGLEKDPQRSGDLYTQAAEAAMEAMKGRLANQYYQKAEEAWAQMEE
The following applies: eEF-2K(h); 100 μM. The essentials:
as §1

The target of experiment [12] is 266 human kinases (Homo sapiens, UniProt Q9H422). The settings on record: HIPK3(h); 100 μM. The essentials: as §1

266 human kinases (Homo sapiens, UniProt Q9H2X6), sequence (Q9H2X6 whole entry): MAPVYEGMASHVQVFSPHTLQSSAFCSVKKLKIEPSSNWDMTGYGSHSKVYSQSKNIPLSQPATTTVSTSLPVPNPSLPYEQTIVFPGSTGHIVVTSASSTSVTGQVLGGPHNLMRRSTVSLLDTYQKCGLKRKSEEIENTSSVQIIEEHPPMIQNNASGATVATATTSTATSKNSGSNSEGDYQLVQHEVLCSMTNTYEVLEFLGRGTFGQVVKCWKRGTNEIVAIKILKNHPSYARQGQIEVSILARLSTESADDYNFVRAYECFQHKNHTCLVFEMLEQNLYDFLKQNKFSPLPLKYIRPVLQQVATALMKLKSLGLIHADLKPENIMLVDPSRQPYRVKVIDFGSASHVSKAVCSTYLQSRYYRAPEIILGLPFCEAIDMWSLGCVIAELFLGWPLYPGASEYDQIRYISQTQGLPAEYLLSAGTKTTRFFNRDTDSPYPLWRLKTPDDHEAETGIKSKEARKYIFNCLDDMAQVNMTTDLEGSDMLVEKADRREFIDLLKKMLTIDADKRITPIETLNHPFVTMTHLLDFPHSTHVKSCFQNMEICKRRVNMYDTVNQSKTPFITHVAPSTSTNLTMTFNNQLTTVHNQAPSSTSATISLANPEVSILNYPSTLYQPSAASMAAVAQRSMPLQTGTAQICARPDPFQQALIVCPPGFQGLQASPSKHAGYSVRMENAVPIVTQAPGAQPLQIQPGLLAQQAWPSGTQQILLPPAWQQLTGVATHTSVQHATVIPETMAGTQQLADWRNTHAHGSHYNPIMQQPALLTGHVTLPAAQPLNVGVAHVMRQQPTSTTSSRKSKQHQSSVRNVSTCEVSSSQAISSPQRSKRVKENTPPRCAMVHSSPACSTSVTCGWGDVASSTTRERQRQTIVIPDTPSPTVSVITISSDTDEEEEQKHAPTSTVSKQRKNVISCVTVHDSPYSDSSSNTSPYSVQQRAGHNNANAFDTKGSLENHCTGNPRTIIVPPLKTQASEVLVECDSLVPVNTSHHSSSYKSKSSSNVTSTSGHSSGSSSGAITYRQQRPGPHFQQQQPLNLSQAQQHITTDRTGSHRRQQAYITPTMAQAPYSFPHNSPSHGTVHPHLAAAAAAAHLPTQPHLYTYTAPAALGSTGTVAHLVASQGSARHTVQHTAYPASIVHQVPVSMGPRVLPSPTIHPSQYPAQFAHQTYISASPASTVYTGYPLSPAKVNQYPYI
266 human kinases (Homo sapiens, UniProt P16234, V561D), sequence (P16234 24-1089 V561D): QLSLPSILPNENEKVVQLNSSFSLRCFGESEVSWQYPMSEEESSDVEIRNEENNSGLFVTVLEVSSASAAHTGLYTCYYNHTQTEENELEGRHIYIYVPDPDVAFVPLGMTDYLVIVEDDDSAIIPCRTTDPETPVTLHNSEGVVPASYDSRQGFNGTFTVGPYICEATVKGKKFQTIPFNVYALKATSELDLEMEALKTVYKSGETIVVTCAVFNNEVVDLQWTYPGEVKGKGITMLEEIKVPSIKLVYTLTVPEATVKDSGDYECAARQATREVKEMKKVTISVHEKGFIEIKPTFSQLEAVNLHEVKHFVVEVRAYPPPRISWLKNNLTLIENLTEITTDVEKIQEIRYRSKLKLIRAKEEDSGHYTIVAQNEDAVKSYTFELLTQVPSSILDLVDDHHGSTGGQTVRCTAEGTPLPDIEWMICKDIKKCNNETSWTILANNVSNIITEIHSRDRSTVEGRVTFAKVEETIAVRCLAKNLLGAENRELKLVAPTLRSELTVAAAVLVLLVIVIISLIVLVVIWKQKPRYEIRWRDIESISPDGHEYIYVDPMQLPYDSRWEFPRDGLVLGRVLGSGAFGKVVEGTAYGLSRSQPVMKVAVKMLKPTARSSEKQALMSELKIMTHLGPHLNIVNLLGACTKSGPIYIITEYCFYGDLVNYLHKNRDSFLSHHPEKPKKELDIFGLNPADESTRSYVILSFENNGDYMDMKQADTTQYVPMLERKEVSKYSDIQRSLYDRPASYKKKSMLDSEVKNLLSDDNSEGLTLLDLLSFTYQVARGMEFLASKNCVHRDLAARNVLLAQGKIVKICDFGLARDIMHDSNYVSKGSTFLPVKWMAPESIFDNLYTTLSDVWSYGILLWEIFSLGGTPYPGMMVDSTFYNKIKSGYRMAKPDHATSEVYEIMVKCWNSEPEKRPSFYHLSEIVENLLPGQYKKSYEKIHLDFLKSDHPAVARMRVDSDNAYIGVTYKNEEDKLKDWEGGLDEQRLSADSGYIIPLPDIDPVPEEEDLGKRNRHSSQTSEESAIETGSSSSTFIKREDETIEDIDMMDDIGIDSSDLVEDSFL

Regarding “YARAAARQARAKALNRQLGVA (mammal) [MMI-0200]”, the “% activity” value in experiment [1] is given as 96%; in [2] it was 88%; in [3], 97%.
Take “HRRIKAWLKKIKALARQLGVAA (mammal) [MMI-0500]”: the “% activity” value is 87% in experiment [4]; 146% in [5]; 0% in [6]; 38% in experiment [7]; 2% in experiment [8]; 21% in experiment [9]. In addition, the “% activity” value worked out at 223% in [10], 43% in [11] and 85% in [12].
